± gives the standard deviation of the averaged measurements.
B1: library; a variant is named by its letters at N, in order (parent)
chain: GCUGUCACCGAGAAACUGUGAAGUAUAUCUUAAACCUGGGCACUUAAAAGAUAUAUGGAGUUAGUAGUGCAACCUGCUCGGUCUGAUGAGUCCNNNNNNGGACGAAACAGC

Tests used:
cyclic di-GMP [1] = variants of: B1; test: normalized RNA/DNA level without ligand (relative to sTRSVctl = 100) (log10 (% of sTRSVctl)); HEK293T; ligand: cyclic di-GMP (c-di-GMP-II aptamer); higher = less ribozyme self-cleavage, higher mRNA level; conditions: reporter: mCherry (pCS4076), ligand present: no
How it was run: (§1)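 Only sequences with at least 100 DNA reads were analyzed, from HEK293T cells transfected with 4 µg per 6-well well of ribozyme switch library plasmids 72 h before RNA extraction with EDTA. Any ligand was added 1 h before transfection. RNA level was defined as RNA over DNA reads, normalized to a spiked-in non-cleaving sequence or to the top sequences, then scaled and log-transformed. The top set was 25 sequences, and the scaling was ×100 followed by log10.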

cyclic di-GMP [2] = variants of: B1; test: normalized RNA/DNA level with ligand (relative to sTRSVctl = 100) (log10 (% of sTRSVctl)); HEK293T; ligand: cyclic di-GMP (c-di-GMP-II aptamer); ligand concentration (+) RNA-Seq: 1 mM; higher = less ribozyme self-cleavage, higher mRNA level; conditions: reporter: mCherry (pCS4076), ligand present: yes
How it was run: as §1

Variant	normalized RNA/DNA level without ligand (log10) (cyclic di-GMP [1])	normalized RNA/DNA level with ligand (log10) (cyclic di-GMP [2])
GGGAGU	1.67 ± 0.071	1.72 ± 0.16
GGGAGC	1.625 ± 0.0022	1.76 ± 0.1
UGCAGC	1.77 ± 0.031	1.87 ± 0.11
UGCAGA	1.63 ± 0.031	1.8 ± 0.096
UGCAGG	1.747 ± 0.003	1.85 ± 0.12
UGCAGU	1.66 ± 0.038	1.83 ± 0.11
UGCGUG	1.71 ± 0.084	1.9 ± 0.096
UGCGUA	1.6 ± 0.029	1.81 ± 0.1
UGCGUC	1.75 ± 0.019	1.85 ± 0.13
UGCAUU	1.713 ± 0.0057	1.84 ± 0.056
UGCAUA	1.7 ± 0.027	1.84 ± 0.084
CGCCAG	1.76 ± 0.075	1.9 ± 0.072
AGCGUU	1.678 ± 0.0089	1.82 ± 0.16
AGCGUA	1.55 ± 0.087	1.71 ± 0.1
GGCCAU	1.73 ± 0.03	1.84 ± 0.1
GGCCAA	1.638 ± 0.01	1.74 ± 0.1
GGCCAC	1.7289 ± 0.0006	1.88 ± 0.083
GGCCAG	1.74 ± 0.0068	1.85 ± 0.025
AGGACG	1.589 ± 0.0076	1.7 ± 0.1
AGGACU	1.66 ± 0.014	1.82 ± 0.088
CGCCCC	1.818 ± 0.0078	1.9 ± 0.1
CGCCCG	1.756 ± 0.0093	1.87 ± 0.14
CGCCCA	1.84 ± 0.069	1.91 ± 0.11

Variant	normalized RNA/DNA level without ligand (log10) (cyclic di-GMP [1])	normalized RNA/DNA level with ligand (log10) (cyclic di-GMP [2])
CGCCCU	1.777 ± 0.0073	1.87 ± 0.077
AGCUCA	1.69 ± 0.013	1.81 ± 0.12
AGCUCC	1.81 ± 0.019	1.88 ± 0.089
AGCUCU	1.76 ± 0.096	1.88 ± 0.17
AGCUGG	1.64 ± 0.043	1.81 ± 0.12
AGCUGA	1.58 ± 0.16	1.72 ± 0.067
AGCUGU	1.667 ± 0.01	1.8 ± 0.073
CGCGCG	1.83 ± 0.025	1.92 ± 0.038
CGCGCU	1.702 ± 0.016	1.83 ± 0.11
CGCGCA	1.65 ± 0.046	1.75 ± 0.13
CGCGCC	1.75 ± 0.025	1.88 ± 0.14
UGGACA	1.712 ± 0.0091	1.83 ± 0.11
UGGACG	1.782 ± 0.011	1.86 ± 0.15
GGCUAU	1.66 ± 0.048	1.78 ± 0.021
GGCUAG	1.5161 ± 0.00019	1.683 ± 0.0052
GGCUAA	1.55 ± 0.09	1.71 ± 0.14
GGCUAC	1.7 ± 0.023	1.84 ± 0.085
GGCUUG	1.64 ± 0.062	1.851 ± 0.0082
GGCUUA	1.61 ± 0.074	1.79 ± 0.12
GGCUUU	1.73 ± 0.03	1.88 ± 0.075
GGCUUC	1.75 ± 0.064	1.82 ± 0.12
CGCGUU	1.67 ± 0.021	1.86 ± 0.12
CGCGUC	1.77 ± 0.062	1.88 ± 0.15

Variant	normalized RNA/DNA level without ligand (log10) (cyclic di-GMP [1])	normalized RNA/DNA level with ligand (log10) (cyclic di-GMP [2])
CGCGUG	1.62 ± 0.034	1.79 ± 0.12
GGGAUA	1.54 ± 0.19	1.66 ± 0.044
GGGAUC	1.66 ± 0.064	1.77 ± 0.09
AGCAUA	1.52 ± 0.083	1.73 ± 0.074
AGCAUU	1.66 ± 0.0074	1.84 ± 0.073
AGCAUC	1.8 ± 0.021	1.88 ± 0.12
UGCCCU	1.79 ± 0.021	1.89 ± 0.057
UGCCCC	1.857 ± 0.013	1.93 ± 0.092
UGCCCA	1.88 ± 0.032	1.96 ± 0.096
CGCGGG	1.67 ± 0.1	1.87 ± 0.047
CGCGGC	1.74 ± 0.03	1.87 ± 0.11
CGCGGU	1.67 ± 0.02	1.87 ± 0.13
CGCGGA	1.446 ± 0.0059	1.62 ± 0.089
CGCUGC	1.806 ± 0.0025	1.9 ± 0.092
CGCUGG	1.67 ± 0.039	1.78 ± 0.086
AGCAAG	1.51 ± 0.09	1.68 ± 0.079
AGCAAC	1.65 ± 0.032	1.77 ± 0.092
UGCCGU	1.66 ± 0.013	1.83 ± 0.12
UGCCGC	1.774 ± 0.015	1.9 ± 0.049
UGCCGG	1.75 ± 0.04	1.86 ± 0.039
UGCCGA	1.626 ± 0.012	1.79 ± 0.12
GGCAGA	1.637 ± 0.013	1.76 ± 0.1
GGCAGU	1.76 ± 0.071	1.849 ± 0.0031

Variant	normalized RNA/DNA level without ligand (log10) (cyclic di-GMP [1])	normalized RNA/DNA level with ligand (log10) (cyclic di-GMP [2])
GGCAGG	1.82 ± 0.022	1.83 ± 0.042
GGCAGC	1.716 ± 0.013	1.82 ± 0.081
GGCAUC	1.65 ± 0.023	1.81 ± 0.087
GGCAUA	1.58 ± 0.11	1.72 ± 0.14
GGCAUU	1.66 ± 0.076	1.82 ± 0.021
GGCAUG	1.68 ± 0.085	1.7 ± 0.081
GGGACU	1.68 ± 0.031	1.83 ± 0.056
GGGACA	1.7 ± 0.042	1.75 ± 0.11
GGGACC	1.84 ± 0.063	1.9 ± 0.15
UGGAUA	1.65 ± 0.043	1.8 ± 0.11
CGCAUC	1.66 ± 0.037	1.83 ± 0.11
CGCAUU	1.47 ± 0.073	1.61 ± 0.11
UGCCUG	1.78 ± 0.047	1.88 ± 0.14
UGCCUA	1.728 ± 0.0086	1.86 ± 0.074
UGCCUC	1.77 ± 0.072	1.9 ± 0.15
UGCCUU	1.725 ± 0.0025	1.87 ± 0.082
CGCGAG	1.743 ± 0.0083	1.828 ± 0.012
CGCGAA	1.23 ± 0.12	1.44 ± 0.11
CGCGAC	1.62 ± 0.041	1.8 ± 0.046
CGCGAU	1.58 ± 0.05	1.79 ± 0.14
AGCUAG	1.54 ± 0.026	1.72 ± 0.16
AGCUAU	1.7 ± 0.05	1.84 ± 0.12
AGCUAA	1.49 ± 0.02	1.7 ± 0.13

Variant	normalized RNA/DNA level without ligand (log10) (cyclic di-GMP [1])	normalized RNA/DNA level with ligand (log10) (cyclic di-GMP [2])
AGCUAC	1.709 ± 0.017	1.81 ± 0.14
CGGAUC	1.63 ± 0.036	1.72 ± 0.15
GGCUCA	1.69 ± 0.021	1.88 ± 0.22
GGCUCU	1.78 ± 0.041	1.92 ± 0.076
GGCUCC	1.88 ± 0.022	1.96 ± 0.11
GGCUCG	1.78 ± 0.055	1.87 ± 0.036
UGGAGU	1.59 ± 0.1	1.76 ± 0.11
UGGAGC	1.64 ± 0.062	1.81 ± 0.15
UGGAGG	1.699 ± 0.0024	1.84 ± 0.14
UGGAGA	1.58 ± 0.082	1.76 ± 0.069
CGCAAC	1.62 ± 0.05	1.78 ± 0.12
CGCAAG	1.77 ± 0.024	1.86 ± 0.088
CGCUCC	1.77 ± 0.035	1.89 ± 0.084
CGCUCA	1.47 ± 0.05	1.68 ± 0.15
CGCUCG	1.77 ± 0.077	1.88 ± 0.16
UGCAAC	1.728 ± 0.0076	1.87 ± 0.099
UGCAAG	1.777 ± 0.0085	1.9 ± 0.088
GGCAAG	1.55 ± 0.019	1.74 ± 0.15
GGCAAC	1.72 ± 0.05	1.82 ± 0.1
GGCAAU	1.65 ± 0.1	1.75 ± 0.13
GGCGAA	1.558 ± 0.0061	1.77 ± 0.2
GGCGAU	1.586 ± 0.014	1.72 ± 0.11
GGCGAC	1.76 ± 0.093	1.88 ± 0.16

— the supplement of paper PMC6757056
